Experimental data reported in patent US20130095127A1, “METHODS OF INHIBITING INFLAMMATION AND INFLAMMATORY DISEASES USING Gal-3BP (BTBD17B, LGALS3BP, GALECTIN-3 BINDING PROTEIN, MAC-2 BINDING PROTEIN)” (LA JOLLA INSTITUTE FOR ALLERGY AND IMMUNOLOGY, priority 2010, published 2013).

Assays:
[1] = test system: intracellular free Ca^2+ in human M0 macrophages; assay: Ca2+ mobilization in M0 macrophages, fluo-4 fluorescence microscopy; assay type: cell-based; settings: Gal-3BP 10 ug/ml; M0 macrophages loaded with 1 μM fluo-4; FIG. 4
Description: Human blood monocytes were cultured as described in Example 2 to produce MO macrophages, incubated with 1 μM fluo-4 for 30 minutes to quantify intracellular free Ca^2+ concentrations, and then triggered with Gal-3BP (10 ug/ml) with or without the PLC-γ inhibitor U73122 (10 nM). Thapsigargin (100 nM) served as positive control. Ca^2+ mobilization was assayed by fluorescence microscopy as previously described (Zanoni et al., Nature 460:264 (2009)). Each line is a measurement from a single cell (FIG. 4).

human macrophages = assay: Gal-3BP-induced IL-2 secretion in monocyte-derived macrophages (ELISA); assay type: cell-based
Description: (§1) Monocytes were isolated from peripheral blood of human healthy donors. Monocyte purity as assessed by flow cytometry for CD14 (clone HCD14, BioLegend, San Diego, Calif.) was routinely >97%. Monocytes were cultured for six days with M-CSF (100 ng/ml, Peprotech, Rocky Hill, N.J.) in macrophage serum-free medium (Gibco, Carlsbad, Calif.) supplemented with nutridoma SP (Roche, Nutley, N.J.), and penicillin/streptomycin (Sigma Aldrich).
(§2) Measurement of cytokines was carried out with Ready set Go ELISA kits (eBioscience).
(§3) Human blood monocytes were incubated with M-CSF (100 ng/ml) for 6 days to produce monocyte-derived macrophages (MO). These macrophages were incubated with interferon-γ (250 u/ml) for 1 day to produce M1 macrophages or with IL-4 (20 units/ml) to produce M2 macrophages or with PGE-2 (1 μM) to produce Mreg macrophages and then challenged with LPS (10 ng/ml) for another day or with Gal-3BP (10 μg/ml over 48 h).
Human blood monocytes were cultured as in (A) (*P=0.05, ***P<0.0001). These macrophages were incubated with Gal-3BP (0.1,1 and 10 μug/ml) for 6 hours and IL-2 was measured by ELISA. […] Human blood monocytes were cultured as in (A). These macrophages were incubated with Gal-3BP (10 μg/ml) or LPS (10 ng/ml) for 6 hours (***P<0.0001).

NFAT [2] = assay: NFAT translocation to nucleus, immunofluorescence microscopy; assay type: cell-based, human; settings: Gal-3BP 10 μg/ml for 2 hours; M0 macrophages; FIG. 5
Description: Cells were fixed in formaldehyde 4%, 10-20 min, room temperature. Cells were then permeabilized in chilled methanol, 5-10 min, and −20° C. in and washed extensively with PBS, then blocked using 5% donkey serum in PBS. Primary antibody (Rabbit anti-NFATc2/NFATp (1:50, ImmunoGlobe), diluted in PBS with goat serum 10%) was applied over night in 4° C. Biotin anti-rabbit antibodies (1:200 Molecular Probes) were incubated for 1 hour. Streptavidin, (Alexa Fluor® 594 conjugate*2 mg/mL*Cat. No. S-32356) detection 1:1000 for 1 hour. DAPI (1:1,000, Sigma Aldrich) for 5 min at room temperature.
These macrophages were then incubated with Gal-3BP (10 μg/ml for 2 hours). Both samples were stained with DAPI (nuclear stain) and an antibody to NFAT (anti-NFAT c2/p IG 209, affinity purified rabbit antibody, ImmunoGlobe). Nuclear translocation was assessed by immunofluorescence microscopy (FIG. 5).

[3] = test system: human monocyte-derived macrophages (M0); assay: Macrophage phenotype: IL-10, IL-2, IL-12 and IL-6 production (ELISA); assay type: cell-based; settings: Gal-3BP 10 μg/ml over 48 h
Description: as §1, §2
as §3, with “(M0).” for “(MO).”, “units/ml)” for “u/ml)”, “h). […] P values are indicated on the graphs.” for “h).”

[4] = test system: microRNAs known to be transcriptional targets of NFAT; assay: microRNA expression in M0 macrophages after Gal-3BP (miRCURY LNA Array); assay type: cell-based; settings: Gal-3BP 10 ug/ml; human M0 macrophages; fold-change screen; FIG. 7
Description: The targets of NFAT signaling are largely cytokines, growth factors and their receptors, proteins involved in cell-cell interactions, as well as microRNAs (Crabtree and Schreiber, Cell, 138: 210 (2009)). To evaluate Gal-3BP's ability to induce NFAT signaling, microRNA expression in human M0 macrophages following Gal-3BP treatment was measured.
Human M0 macrophages were challenged with Gal-3BP (10 ug/ml), small RNAs were isolated and screened for microRNA expression using miRCURY™ Power Labeling Kit and hybridized on the miRCURY™ LNA Array (v.11.0). The samples were hybridized using a hybridization station and scanned using the Axon GenePix 4000B microarray scanner. GenePix pro V6.0 is used to extract the raw intensity of the image. Differentially expressed microRNAs were identified through fold-change screen. […] These microRNAs reflect increased NFAT activity via Gal-3BP.

NFAT [5] = assay: Gal-3BP-induced IL-2 secretion with or without NFAT inhibitors (ELISA); assay type: cell-based, human; settings: Gal-3BP 10 μg/ml for the times indicated; FIG. 6A
Description: as §2
To determine if NFAT is required for Gal-3BP-induced IL-2 secretion, human blood monocytes were incubated with M-CSF (100 ng/ml) for 6 days to produce monocyte-derived macrophages (M0). […] Macrophages were alternatively treated with Gal-3BP (10 μg/ml) in the absence or presence of CSA (1 μM) or FK506 (1 μM), another known NFAT inhibitor (FIG. 6B). […] (P values are ***0.0004, **0.006 and *0.034)

B1: Gal-3BP: Galectin-3 binding protein, a secreted 585 (murine 577) amino acid protein; human sequence SEQ ID NO:1 (protein, listed as Homo sapiens)
chain: MTPPRLFWVWLLVAGTQGVNDGDMRLADGGATNQGRVEIFYRGQWGTVCDNLWDLTDASVVCRALGFENATQALGRAAFGQGSGPIMLDEVQCTGTEASLADCKSLGWLKSNCRHERDAGVVCTNETRSTHTLDLSRELSEALGQIFDSQRGCDLSISVNVQGEDALGFCGHTVILTANLEAQALWKEPGSNVTMSVDAECVPMVRDLLRYFYSRRIDITLSSVKCFHKLASAYGARQLQGYCASLFAILLPQDPSFQMPLDLYAYAVATGDALLEKLCLQFLAWNFEALTQAEAWPSVPTDLLQLLLPRSDLAVPSELALLKAVDTWSWGERASHEEVEGLVEKIRFPMMLPEELFELQFNLSLYWSHEALFQKKTLQALEFHTVPFQLLARYKGLNLTEDTYKPRIYTSPTWSAFVTDSSWSARKSQLVYQSRRGPLVKYSSDYFQAPSDYRYYPYQSFQTPQHPSFLFQDKRVSWSLVYLPTIQSCWNYGFSCSSDELPVLGLTKSGGSDRTIAYENKALMLCEGLFVADVTDFEGWKAAIPSALDTNSSKSTSSFPCPAGHFNGFRTVIRPFYLTNSSGVD
Question: With B1 as the molecule, how does the “Ca^2+ mobilization” value [1] read?
Answer: triggers Ca^2+ mobilization

Question: What about the IL-2 production (human macrophages; Gal-3BP 10 μg/ml or LPS 10 ng/ml for 6 hours, FIG. 1C, P<0.0001) of the same molecule?
Answer: induces IL-2 production

Question: What about the IL-2 production (human macrophages; Gal-3BP 10 μg/ml over 48 h, standard ELISA, FIG. 1A, P=0.0003) of the same molecule?
Answer: induced production of IL-2

Question: And the “IL-2 production, concentration dependence” value (human macrophages; Gal-3BP 0.1, 1 and 10 μg/ml for 6 hours, ELISA, FIG. 1B)?
Answer: concentration dependently induces IL-2 production

Question: And the “NFAT translocation to nucleus” value (NFAT [2])?
Answer: induces NFAT translocation to nucleus

Question: And the IL-10 production ([3]; FIG. 2A)?
Answer: moderate IL-10

Question: And the IL-2 production ([3]; FIG. 2B)?
Answer: production of IL-2

Question: And the IL-12 production ([3]; FIG. 2C)?
Answer: no IL-12

Question: And the IL-6 production ([3]; FIG. 2D)?
Answer: little IL-6

Question: And the “Number of eight NFAT-target microRNAs significantly up-regulated” value [4]?
Answer: five were significantly up-regulated

Question: And the “IL-2 secretion over time” value (NFAT [5])?
Answer: induced secretion of IL-2
